In PMC3386930, “Altering APP Proteolysis: Increasing sAPPalpha Production by Targeting Dimerization of the APP Ectodomain” (PLoS ONE, 2012):

Columns and labels:
eAPP230–624 [1] = target: T1, eAPP230–624 (Homo sapiens, UniProt P05067); experiment: Small-angle X-ray scattering (SAXS) of eAPP230–624 complexes; type: binding; conditions: for Dmax / Rg: SAXS, GNOM, eAPP230–624 with peptide; for Dmax: maximum dimension, max. estimated error ±10 Å; for Rg: radius of gyration, max. estimated error ±2 Å
T1 construct: made in house
Method: The samples were incubated on ice for 20 minutes and then concentrated to 50 µl with 10-kDa cutoff concentrators (Millipore). […] Samples of the filtrates were used for buffer subtraction.
The samples were then concentrated and purified with a Superdex S200 size-exclusion column with 20 mM Tris pH 7.4, 100 mM sodium chloride and 2 mM EDTA. Samples of the protein buffer from the size-exclusion columns were used for buffer subtraction.
Data collection and processing
Small-angle X-ray scattering data were collected using protein concentrations in the range of 0.5–3 mg/ml and an X-ray wavelength of 1.11 Å at beam line 12.3.1 (Advanced Light Source). Data were integrated with software customized for the beam line and processed with the program PRIMUS [30]. The program GNOM [31] was used to calculate the maximum dimension and the radius of gyration and to estimate the intensity of the scattering at zero angle for higher concentration samples.

eAPP230–624 [2] = target: T1, eAPP230–624; experiment: Intrinsic tryptophan fluorescence of eAPP230–624; type: binding; conditions: for inhibition of eAPP dimerization (in words): legend of titration of 0.64 µM eAPP230–624 with 0–60 µM fragment; for log(EC50), EC50 = molar ratio Aβ to eAPP230–624 that invokes half the response: quenching at 375 nm, equation 4, n constrained to 7, R^2 = 0.88, differences not significant at p<0.05
Method: The excitation spectra of the intrinsic tryptophan fluorescence were recorded using either a Shimadzu RF-530PC (Shimadzu Scientific Instruments) or a Spectramax XPS spectrophotometer (Molecular Devices).
Full emission spectra were measured with the Shimadzu RF-530PC using a 3 ml quartz cuvette, a 5 nm slit width and protein concentrations between 0.2–0.6 µM. […] For these larger dilutions, control titrations with the protein alone were used to generate a scaling matrix where the scale factor was both a function of wavelength and dilution. […] A similar scaling matrix was used to correct for the effect of dilution with DMSO. […] All titrations were performed at 24°C. The oligomers were stored on ice during the experiment.
These concentrations are analogous to concentrations used to create complexes for the small angle x-ray scattering analysis. The incubated material was diluted with PBS so that the final protein concentration was 0.5 µM. The spectra were recorded with the Shimadzu […].
For experiments with the Spectromax XPS plate reader, an excitation wavelength of 295 nm was used. This excitation wavelength was chosen to minimize both the contribution of tyrosine in the protein and the background fluorescence of the 96-well plates (Costar #3915).
For the quenching experiments, the data were analyzed by constructing Stern-Volmer plots, F0/F vs. Q, where Fo is the intensity of the fluorescence at zero concentration, F is the intensity of the fluorescence, and Q is the concentration of the quenching agent. When quenching is through either a static (binding) or dynamic (collisional) mechanism this plot is linear and follows the equation: [drawing 1] (1) where Ksv is the quenching constant. When both processes are present the Stern-Volmer plot is quadratic: [drawing 2] (2) where KD is the equilibrium constant associated with dynamic quenching and Ks is the equilibrium constant associated with static quenching. All parameters were determined using PRISM (GraphPad) and the appropriate non-linear curve fitting routine.
The centroid wavelength (λc) was calculated as: [drawing 3] (3) where I(λi) is the intensity observed for the wavelength (λi). The range of wavelengths was 310–390 nm.

[3] = target: MBP-eAPP_(230–624), maltose binding protein fusion protein containing residues 230–624 (UniProt P05067); experiment: small-angle X-ray scattering (SAXS); 150 µl MBP-eAPP230-624 (≈0.5 mg/ml) diluted with 400 µl of peptide solution, 20 minutes on ice, concentrated to 50 µl with 10-kDa cutoff concentrators
[4] = target: TRX-eAPP_(290–624), thioredoxin fusion protein containing residues 290–624 of APP695 (UniProt P05067); experiment: small-angle X-ray scattering (SAXS); eAPP fragment incubated on ice with Aβ oligomers or Aβ fragments (peptide less than 10 µM), concentrated and purified on Superdex S200 in 20 mM Tris pH 7.4, 100 mM sodium chloride, 2 mM EDTA
[5] = target: the molecule itself; experiment: small-angle X-ray scattering (SAXS); eAPP fragment alone; 0.5–3 mg/ml, X-ray wavelength 1.11 Å; relative mass from I(0) against albumin and the eAPP fragment dimer
[6] = incubated, 1:6 molar ratio, 0.5 µM eAPP230–624

“7-kDa Aβ1-40: 7-kDa Aβ1-40 dimers, prepared by sonication and 15 minutes incubation” was tested, and the MWcalc/MWseq (eAPP230–624 [1]; SAXS relative mass, MWseq 45-kDa for eAPP230–624, max. error ±0.2, monomer around 1.3, protein alone 2.0) was 1.2, the Dmax (eAPP230–624 [1]) was 180 Å and the Rg (eAPP230–624 [1]) was 49 Å. The “inhibition of eAPP dimerization (in words)” value (“inhibition” for short) (eAPP230–624 [2]) was “inhibit eAPP dimerization”.

In the case of “13-kDa Aβ1-40: 13-kDa Aβ1-40 oligomer pool”, the “more oligomers that can bind eAPP (ratio of amplitudes A)” value (eAPP230–624 [2]; from ratio of amplitudes of maximal response, vs 70-kDa pools, Spectramax XPS) is reported as “about 150%”, the “blue-shift in the centroid wavelength” value (eAPP230–624 [2]; [6]) is reported as “did not produce a significant blue shift” and the “fluorescence intensity relative to eAPP230–624” value (eAPP230–624 [2]; [6]) is reported as 80%. The “log(EC50), EC50 = molar ratio Aβ to eAPP230–624 that invokes half the response” value (eAPP230–624 [2]; Spectramax XPS) was 1.27±0.02.

For “13-kDa Aβ1-42: 13-kDa Aβ1-42 oligomers, predominately trimers”, the “increase in intensity of the fluorescence” value (eAPP230–624 [2]; rapid dilution, final 1:27 molar ratio, 0.64 µM eAPP230–624, Shimadzu RF-530PC) was 114%.

For 20-kDa Aβ1-42: 20-kDa Aβ1-42 oligomers, the Dmax (eAPP230–624 [1]) was 170 Å and the Rg (eAPP230–624 [1]) was 46 Å.

In the case of “70-kDa Aβ1-40: 70-kDa Aβ1-40 oligomer pool”, the “log(EC50), EC50 = molar ratio Aβ to eAPP230–624 that invokes half the response” value (eAPP230–624 [2]; Spectramax XPS) is reported as 1.32±0.01.

In the case of “Aβ1-42 species greater than 200-kDa: Aβ1-42 species greater than 200-kDa in size”, the “effect on intrinsic fluorescence at 375 nm (in words)” value (eAPP230–624 [2]; Spectramax XPS, increasing molar ratio, up to 120 µM Aβ) is reported as “slight enhancement of the intrinsic fluorescence” and the “change in fluorescence spectra (in words)” value (eAPP230–624 [2]; [6]) is reported as “relatively minor change in the fluorescence spectra”.

In the case of “Aβ5-14: Aβ fragment (RHDSGYEVHH; Amyloid-beta protein 42; UniProt P05067 676-685, looked up, fragment)”, the “inhibition” value (eAPP230–624 [2]) is reported as “inhibit eAPP dimerization”.

With Aβ10-20 (peptide) the MWcalc/MWseq (apparent mass of the sample over the sequence mass of the eAPP fragment) [3] was 1.3.

Work on Aβ11-17 (peptide) yielded an MWcalc/MWseq (apparent mass of the sample over the sequence mass of the eAPP fragment) [4] of 1.2.

For “Aβ12-24: Aβ fragment (VHHQKLVFFAEDV; Amyloid-beta protein 42; UniProt P05067 683-695, looked up, fragment)”, the “inhibition” value (eAPP230–624 [2]) was “inhibit eAPP dimerization”.

With Aβ12-28: Aβ fragment the “inhibition” value (eAPP230–624 [2]) was “inhibit eAPP dimerization” and the “pattern of changes in the intrinsic fluorescence (in words)” value (eAPP230–624 [2]; titration of 0.64 µM eAPP230–624, 345 nm) was “acted like Aβ1-40 dimers in terms of the changes in the intrinsic fluorescence”.

B1: TRX-eAPP_(290–624), thioredoxin fusion protein containing residues 290–624 of APP695 (domain or fragment, UniProt P05067-4 290-624, looked up)
chain: PTTAASTPDAVDKYLETPGDENEHAHFQKAKERLEAKHRERMSQVMREWEEAERQAKNLPKADKKAVIQHFQEKVESLEQEAANERQQLVETHMARVEAMLNDRRRLALENYITALQAVPPRPRHVFNMLKKYVRAEQKDRQHTLKHFEHVRMVDPKKAAQIRSQVMTHLRVIYERMNQSLSLLYNVPAVAEEIQDEVDELLQKEQNYSDDVLANMISEPRISYGNDALMPSLTETKTTVELLPVNGEFSLDDLQPWHSFGADSVPANTENEVEPVDARPAADRGLTTRPGSGLTNIKTEEISEVKMDAEFRHDSGYEVHHQKLVFFAEDVGSNK
notes: numbers count on: APP695; Dimer by SAXS; source: expressed and purified as previously described [18]
With B1 the “stoichiometry N” value [5] was 2.

B2: MBP-eAPP_(230–624), maltose binding protein fusion protein containing residues 230–624 (domain or fragment, UniProt P05067-4 230-624, looked up)
chain: EEEEVAEVEEEEADDDEDDEDGDEVEEEAEEPYEEATERTTSIATTTTTTTESVEEVVRVPTTAASTPDAVDKYLETPGDENEHAHFQKAKERLEAKHRERMSQVMREWEEAERQAKNLPKADKKAVIQHFQEKVESLEQEAANERQQLVETHMARVEAMLNDRRRLALENYITALQAVPPRPRHVFNMLKKYVRAEQKDRQHTLKHFEHVRMVDPKKAAQIRSQVMTHLRVIYERMNQSLSLLYNVPAVAEEIQDEVDELLQKEQNYSDDVLANMISEPRISYGNDALMPSLTETKTTVELLPVNGEFSLDDLQPWHSFGADSVPANTENEVEPVDARPAADRGLTTRPGSGLTNIKTEEISEVKMDAEFRHDSGYEVHHQKLVFFAEDVGSNK
notes: as for B1
With B2 the “stoichiometry N” value [5] was 2.

B3: eAPP_(230–624), fragment of the APP ectodomain containing residues 230–624 (domain or fragment, UniProt P05067-4 230-624, looked up)
chain: EEEEVAEVEEEEADDDEDDEDGDEVEEEAEEPYEEATERTTSIATTTTTTTESVEEVVRVPTTAASTPDAVDKYLETPGDENEHAHFQKAKERLEAKHRERMSQVMREWEEAERQAKNLPKADKKAVIQHFQEKVESLEQEAANERQQLVETHMARVEAMLNDRRRLALENYITALQAVPPRPRHVFNMLKKYVRAEQKDRQHTLKHFEHVRMVDPKKAAQIRSQVMTHLRVIYERMNQSLSLLYNVPAVAEEIQDEVDELLQKEQNYSDDVLANMISEPRISYGNDALMPSLTETKTTVELLPVNGEFSLDDLQPWHSFGADSVPANTENEVEPVDARPAADRGLTTRPGSGLTNIKTEEISEVKMDAEFRHDSGYEVHHQKLVFFAEDVGSNK
notes: as for B1
B3 was tested, and the “stoichiometry N” value [5] was 2.
